Assays:
[1] = biological target: Ayg1p chain-shortening enzyme (Aspergillus fumigatus, UniProt Q9UVV1); assay: T4HN production detected in yeast co-expressing alb1 and ayg1; type: cell-based; details: S. cerevisiae INVSc1-npgA, YWA1 formed in the cell by Alb1p; 30 °C
[2] = system: O=C1C[C@H](O)Cc2cc(O)cc(O)c21; assay: purified protein; details: conditions not separately told (YWA1 assay: pH 6.0, 30 °C)
[3] = biological target: T1, Arp1p with His-tag (Arp1p-HT), Arp1p dehydratase of Aspergillus fumigatus (Aspergillus fumigatus (strain B-5233)), O14434; assay: SEC; details: remark: other sources report otherwise
T1 chain: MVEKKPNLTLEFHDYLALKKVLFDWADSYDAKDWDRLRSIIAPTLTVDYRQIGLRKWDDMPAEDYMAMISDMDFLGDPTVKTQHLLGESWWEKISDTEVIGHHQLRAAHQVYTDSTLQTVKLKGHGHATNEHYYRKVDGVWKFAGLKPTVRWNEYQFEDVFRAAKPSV

Molecule: CC1(O)CC(=O)c2c(cc3cc(O)cc(O)c3c2O)O1 (stereo not shown) [YWA1]
- T4HN production detected in yeast co-expressing alb1 and ayg1 [1]: co-transformed into yeast (S. cerevisiae INVSc1-npgA/pYES-alb1+p425-ayg1) and T4HN production was detected

Molecule: Arp1p (Arp1p-HT) dehydratase (Aspergillus fumigatus Af293)
- Km [2]: 15.7 µM
- kcat [2]: 2.7 s⁻¹

B1: Arp1p with His-tag (Arp1p-HT), Arp1p dehydratase of Aspergillus fumigatus, O14434 1-168 (enzyme)
chain: T1 chain
- stoichiometry N [3]: 3

Reference: publication PMC8612989 (Environmental microbiology reports, 2021)
